Measured values as given in paper PMC9839844, “PPDPF Promotes the Development of Mutant KRAS‐Driven Pancreatic Ductal Adenocarcinoma by Regulating the GEF Activity of SOS1” (Advanced Science, 2022).

Molecular target: T1, SOS1^Cat (catalytic module of SOS1: REM and CDC25 domains), recombinant (UniProt Q07889 566-1046)
T1 construct: SOS1, Cat domain (REM and CDC25 domains together); cloned into the ProEX HTb vector; also called SOS^Cat; Cat domain; source: E. coli BL21 (Rosta), purified (His beads)
T1 sequence: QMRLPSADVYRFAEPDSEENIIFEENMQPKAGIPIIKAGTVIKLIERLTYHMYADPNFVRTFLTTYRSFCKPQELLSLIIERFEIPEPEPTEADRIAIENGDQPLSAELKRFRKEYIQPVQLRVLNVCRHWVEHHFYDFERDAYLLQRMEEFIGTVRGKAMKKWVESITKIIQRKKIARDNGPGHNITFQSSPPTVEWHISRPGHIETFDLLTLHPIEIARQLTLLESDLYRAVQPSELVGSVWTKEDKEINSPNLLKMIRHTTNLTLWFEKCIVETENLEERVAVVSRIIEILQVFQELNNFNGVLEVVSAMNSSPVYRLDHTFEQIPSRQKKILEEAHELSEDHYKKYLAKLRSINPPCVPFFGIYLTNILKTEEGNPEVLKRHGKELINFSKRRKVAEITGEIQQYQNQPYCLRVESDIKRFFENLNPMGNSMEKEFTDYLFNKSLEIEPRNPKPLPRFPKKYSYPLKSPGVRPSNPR
Assay: pull-down; GST pulldown in vitro with recombinant proteins
Conditions: both partners purified

binding result: binds
B1: PPDPF, recombinant (natural protein, UniProt Q9H3Y8 1-114, looked up)
chain: MAAIPSSGSLVATHDYYRRRLGSTSSNSSCSSTECPGEAIPHPPGLPKADPGHWWASFFFGKSTLPFMATVLESAEHSEPPQASSSMTACGLARDAPRKQPGGQSSTASAGPPS
notes: Pancreatic progenitor cell differentiation and proliferation factor (PPDPF); subcloned into pGEX-4T-1; The methods say that the beads were incubated with thrombin; also called PPDPF recombinant protein; source: E. coli BL21, purified (GST beads)
